This note sets out measurements from the nanobody polyreactivity screen of Harvey et al. (2022).

The nature of the series: yeast display, Sf9 membrane polyspecificity reagent, FACS + sequencing; frameworks hold sequencing errors. An outline of the steps: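 Using colony PCR, genes from sorted yeast display clones were amplified, then sequenced on MiSeq at 2 × 250 and filtered by CDR length. The clones had been stained with 10% biotinylated, detergent-solubilized Sf9 membrane reagent for 1 hour at 4 °C and sorted by FACS into low and high (top ~1%) gates on anti-HA and streptavidin fluorescence. Polyreactivity labels come from the gate of origin.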
“QVHLVESGGGLVQAGGSLRLSCAASGLIFSFYPMGWYRQAPGKERELVAGINWRGGSTYYADSVKGRFTISRDNAKNTVYLQMNSLKPEETAVYYCAAPSYYYGYWGQGTQVTVLS”: the “polyreactivity (PSR sort gate)” value is listed as “high polyreactivity”.

On to “QVQLVESGGGLVQAGGSLRLSCAASGRIFGAYAMGWYRQAPGKERELVAAITSRGGNTYYADSVKGRFTISRDNAKNTVYFQMNSLKPEDTAVYYWAARHDKRRQYYVGQSAFDYWGQGTQVTVSS”, for which the “polyreactivity (PSR sort gate)” value is “low polyreactivity”.

Regarding “QVQLVESGGGLVQAGGSLRLSCAASGRIFVHYVMGWYRQAPGKERELVAAISRSGGRTYYADSVKGRFTISRDNAKNTVYLQMNSLKPEDTAVYYCATDASTYKYDYWGQGTQVTVSS”, the “polyreactivity (PSR sort gate)” value is listed as “high polyreactivity”.

In the case of “QVQLVESGGGLVQAGGSLRLSCAASGRTFPYYDMGWYRQAPGKERELVAAITSGGTTNYADSVKGRFTISRDNAKNTVYLQMNSLKPEDTAVYYCAAGSPWYYFSSYGYWGQGTQVTVSS”, the “polyreactivity (PSR sort gate)” value was “low polyreactivity”.

As for “QVQLVESGGGLVQAGGSLRLSCAASGSIFWSYAMGWYRQAPGKEREFVAAISGGDGTTYYADSVKGRFTISRDNAKNTVYLQMNSLKPEDTAVYYCNAVGYWYGSLEYDYWGQGTQVTVSS”, the “polyreactivity (PSR sort gate)” value is recorded as “low polyreactivity”.

Consider “QVQLVESGGGLVQAGGSLRLSCAASGSTFQVYAMGWYRPAPRKERELVATIRRTGGSTYYADSVKGRFTISRDNAKNTVYLQMNSLKPEDTAVYYCAARTYGGIVLRLDYWGQGTQVTVSS”, for which the “polyreactivity (PSR sort gate)” value was “high polyreactivity”.

Consider “QVQLVESGGGLVQAGGSLRLSCAASGSILGDYAMGWYRQAPGKEREFVAAIDGSDGSTYYADSVKGRFTISRDNAKNTVYLQMNSLKPEDTAVYYCNVVRQGKREFDYWGQGTQVTVSS”, for which the “polyreactivity (PSR sort gate)” value is listed as “low polyreactivity”.

Take “QVQLVESGGGLVQAGGSLRLSCAASGFIFRYYAMGWYRQAPGKERELVAAISWSGTRTFYADSVKGRFTISRDNAKNTVYLQMNSLKPEDTAVYYCAAETTGYDSYIQYEYWGQGTQVTVSS”: the “polyreactivity (PSR sort gate)” value was “high polyreactivity”.

For the sequence “QVQLVESGGGLVQAGGSLRLSCAASGLTFAWYAMGWYRQAPGKARELVAVISNGGSTNDADSVKRRFTISRDNAKNTVYLQMNSLKPDDTAVYYCAAGWVWSGNDYYYWGQGTQVTVSS”, the “polyreactivity (PSR sort gate)” value is recorded as “low polyreactivity”.

Consider “QVQLVESGGGLVLAGGSLSLTCAASGRTCWYYTMGWYRHAPGKARELVAAISSGGRTNYADSVKGRFTISRDNATNTVFLQMNSLKPEDTAVYYCATSRYYKYVERDYWGQGTQVTVSS”, for which the “polyreactivity (PSR sort gate)” value is given as “high polyreactivity”.

Regarding “QVQLVESGGGLVQAGGSLRLSCAASGFTFLTYAMGWYRQAPGKERELVAAIDSGDSTKYADSVKGRFTISLDNAKNTVYLQMNSLKPEDTAVYYCNASRRYHVRAPYDYWGQGTQVTVSS”, the “polyreactivity (PSR sort gate)” value is recorded as “low polyreactivity”.

As for “QVQLVESGGGLVQAGGSLRLSCAASGRIFIVNAMGWYRQATGKERELVAAISYRGGSTYYADSVKGRFTISRDNAKNTVYLQMNRLKPEDTAVYYCAADRYSYLGYPYEYEYWGQGTQVTVSS”, the “polyreactivity (PSR sort gate)” value is recorded as “low polyreactivity”.

For the sequence “QVQLVESGGGLVQAGGSLRLSCAASGYTFRSYLGWYRQAPGKEREFVADISTSVTNTYYADSVKGRFTISRDNAKNTVYLQMISLKPEDTAVYYCAAGVQSVYNGEPGIILDFDYWGQGTQVTVSS”, the “polyreactivity (PSR sort gate)” value is “low polyreactivity”.

In the case of “QVQLVESGGGLVQARGSLRLSCAASGRTFVVYDMGWYRPAPGKERALVAAITWSGGSTYYADSVKGRFTSSRDTAKNTVYLQMHSLKPEDTAVYYCAAGYYYFWTYAYWGQGTQVTVSS”, the “polyreactivity (PSR sort gate)” value is recorded as “low polyreactivity”.

For the sequence “QVQLVESGGGLVQAGGSLRLSSAASGSIFITYAMGWYRQAPGKERELVAAIRDSGDRTYYADSVKGRFTISRDNAKNTVYLQMNSLKPEDTAVYYCNARWQEPLKYDYWGQGTQVTVSS”, the “polyreactivity (PSR sort gate)” value is “low polyreactivity”.

Regarding “QVQLVESGGGLVQAGGSLRLSCAASGRIIGKNVMGWYRQAPGKERELVAAISKSGGSTYYADSVKGRFTISRDNAKNTVYLQMNSLKPEDTAVYYCAAKYYYHWHRQGYDYWGQGTQVTVSS”, the “polyreactivity (PSR sort gate)” value is listed as “high polyreactivity”.

As to “QVQLVESGGGLVQAGGSLRLSCAASGRTSRSYAMGWYRQAPGKERELVAAISWSGGSTYYADSVKGRFTMSRDNAKNTVYLQMNSLKPEDTAGYYCNALTLAGYDYWGQGTQVTVSS”, the “polyreactivity (PSR sort gate)” value is recorded as “high polyreactivity”.

With “QVQLVESGGGLVQAGGSLRLSCAASGRIFTWNAMGWYRQAPGKERELVATINRGGNTNYADSVKGRFTISRDNAKNTVYLQMNSLKPEDTAVYYCAARYHYSNLYRFAYGYWGQGTQVTVSS”, the “polyreactivity (PSR sort gate)” value is “high polyreactivity”.

On to “QVQLVESGGGLVQAGGSLRLSCAASGYTLQTYAMGWYRQAPGKERELVAAISYRGGRTYYADSVKGRFTISRDNAKNTVYLQMNSLKPEDTAVYYCATRVRYKDYPYSIRYYWGQGTQVTVSS”, for which the “polyreactivity (PSR sort gate)” value is “high polyreactivity”.

In the case of “QVQLVESRGGLVQAGGSLRLSCAASGSIFAIYTMGWYRQAPGKERELVAAITGNGGRTYYADSVKGRFTISRDNAKNTVYLQMNSLKPEDTAVYYCAVVGYHRDYDYWGQGTQVTVSS”, the “polyreactivity (PSR sort gate)” value is “low polyreactivity”.

Regarding “QVQLVESGGGLVQAGGSLRLSCAASGFTFHDYVMAWYRQAPGKERELVAAISRSGGSTYYADSVKGRFTISRDNAKHTVYLQMNSLIPEDTAVYYCAAREYTTGGWRYNYWGQGTQVTVSS”, the “polyreactivity (PSR sort gate)” value is “high polyreactivity”.

With “QVQLVESGGGLVQAGGSLPLSCAASGSTFLQYAMGWYRQAPGKERELVAAIRGRGDSTYYADSVNGRFTISRDNEMNTVYLQMNSLKPVDSAVYSCAARGQGSRGMYYWGQGTKVTVSS”, the “polyreactivity (PSR sort gate)” value was “low polyreactivity”.

In the case of “QVQLVESGGGLVQAGGSLRLSCAASGYIFGQNAMGWYRPAPRKERELVASISDGGSTYYADSVKGRFTISRDNAKNTVYLQMNSLKPEDTAVYYCAAGQYWGEKALGAWLFDYWGQGTQLTVSS”, the “polyreactivity (PSR sort gate)” value is “low polyreactivity”.

On to “QVQLVESGGGLVQAGGSLRLSCAASGSIFGYNAMGWYRQAPGKEREFVAAINTSGGSTYYADSVKGSFTISRDNAKNTVYLQMYSLKPEATAVYYCAARAYSWISARYYWGLGTQVTVSS”, for which the “polyreactivity (PSR sort gate)” value is reported as “high polyreactivity”.

Turning to “QVQLVESGGGLVQAGGSLRLSCAASGSIFRSYAMGWYRQAPGKEREFVAAINSRSGSTYYADSVKGRFTISRDNAKNTVYFQINSLKPEDTAVYYWAVTYYTRGYGHMDYWGQGTQVTVSS”, the “polyreactivity (PSR sort gate)” value is on record as “high polyreactivity”.

Turning to “QVQLVESGGGLVQAGGSLRLSCAASGFIITTYAMGWYRQAPGKERELVAGISSSGGRTYADSVKGRFTISRDNAKNTVYLQMNSLKPEDTAVYYCAREQWRTLVQTDKYKYDYWGQGTQVTVSS”, the “polyreactivity (PSR sort gate)” value was “high polyreactivity”.

“QVQLVESGGGLVQAGGSLRLSCAASGRTFGTYAMGWYRQAPGKDRELVAAISRRGGTTYYADSVKGRFTISRDNAKNTVYLQMNSLKPEDTAVYYCARASWSITTVLSTMDYWGQGTQVTVSS”: the “polyreactivity (PSR sort gate)” value is given as “high polyreactivity”.

As for “QVQLVESGGGLVQAGGSLRLSCAASGRIFSWYAMGWYRQAPGKERELVAAITVRGSTYYADSVKGRFTISRDNAKNTVYLQMNSLKPEDTAVYYCAAKSSRYAYDYWGQGTQVTVSS”, the “polyreactivity (PSR sort gate)” value is “low polyreactivity”.

On to “QVQLVESGAGLVQAGGSLRLSCAANTKGSYRQAPGKETELVAAINTGSSTYYADSVKGRFTISRDNAKNTVYLQMNSLKPEDTSVYYCNASYPQYLEYRTRQYNYWVQGTQVTVSS”, for which the “polyreactivity (PSR sort gate)” value is on record as “low polyreactivity”.

With “QVQLVESGGGLVQAGGSLRLSCAASGRISRNYAMGWYRQAPGKERELVAAINRGGSTYYADSVKGRFTISRDNAKNTVYLQMNSLKPEDTAVYYCAARYPNQYDYWGQGTQVTVSS”, the “polyreactivity (PSR sort gate)” value is “high polyreactivity”.

Turning to “QVQLVESVGGLVQAGGSLSLTCAASARTLNIYAMGWNRAAPGKERELVAAISKRGGTTYYADSVKGRFTISRDNAKNTVYLQMNSLKPEDTAVYYCNAAVRGVGELDYWGQGTQVTVSS”, the “polyreactivity (PSR sort gate)” value is “high polyreactivity”.

For the sequence “QVQLVESGGGLVQAGGSLRLSCAASGNILLFNAMGWYRQAPGKERELVATINQSGGRTYYADSVKGRFTISRDNAKNTVYLQMNSLKPEDTAVYYCNAPGSPVVQQPGYYWGQGTQVTVSS”, the “polyreactivity (PSR sort gate)” value was “low polyreactivity”.

With “QVQLVESGGGLVQAGGSLRLSCAASGGIFGYNMGWNRQAPGKEWELVAAITSGGITNYADSVKGRFTISRDNAKNTVYLQMNSLKPQDTAVNYCNRSPGGGKETVLGGDYWGQGTQVTVSS”, the “polyreactivity (PSR sort gate)” value is on record as “low polyreactivity”.

In the case of “QVQLVESGGGLFQAGGSLRLSCAASGRTVVGYAMGWYRQAPGKERELVAAFTGSGGRTYDADSVKGRFTISRDNAKNTVYLQMKSLKPEDTAVYYCNNVYRFSSGAYLYDYWVQGTQVTVSS”, the “polyreactivity (PSR sort gate)” value is recorded as “high polyreactivity”.

In the case of “QVQLVESGGGLVQAGGSLRLSCAASGRIFYHNTMGWYRQAPGKEREFVAAISKRGGNTYYADSVKGRFTISRDNAKNTVYLQMNSLKPEDTAVYYCNRRNAWSRGEYWGQGTQVTVSS”, the “polyreactivity (PSR sort gate)” value is on record as “high polyreactivity”.

As for “QVQLVESGGGLVQAGGSLSLSCAASGFILDFNSLGWYRQAPGKERELVAAISISGVSTYYADSVKGRFTISRDNAKNTVYLQMHSLKPEDTAVYYGAAAQVAAVYWRPGGYDYWGQGTQVTVSS”, the “polyreactivity (PSR sort gate)” value is given as “low polyreactivity”.

For “QVQLVESGGGLVQAGGSLRLSCAASGSIFFYAMGWYRQAPGKERELVADITYTGGSKYADSEKGRFTISRDNAKNTVYLQMNSLKPEETAVYSGATLDGGLFDDWGQGTQVTVSS”, the “polyreactivity (PSR sort gate)” value is listed as “low polyreactivity”.

On to “QVQLVESGGVLVQAGGSLRLSCAASGSISFNAMGWYRQAPGKERELVAAITTSGGRTYYADSVKGRLTISRDNAKNTVSLQMNSLKPEDTAVYYCNVASKGRFARYAAEYVSWRQGTQVTVSS”, for which the “polyreactivity (PSR sort gate)” value is recorded as “high polyreactivity”.

“QVQLVESGGGLVQAGGSLRLSCAASGFTFARNAMGWYRQAPGKERELVAAINRSGGSTYYADSVKGRFTISRDNAKNTVYLQMNRLKPEDTAVYYCNKPRLAQQGYDYWGQGNQVTVSS”: the “polyreactivity (PSR sort gate)” value is “high polyreactivity”.

“QVQLVESGGGLVQAGGSLRLSCAASGINYVRYAMGWYRQAPGKEREFVAAITRNGGRTYYADSVKGRFTISRDNAKNTVYLQMNSLKPEDTAVYYCAAYPAYPGTLEMDYWGQGTQVTVSS”: the “polyreactivity (PSR sort gate)” value was “high polyreactivity”.

As to “QVQLVESGGGLVQAGGSLRLSCPASGRTFSRNAMGRYRQAPGKERELVATISRRGGSTNYADSVKGRFTISRDNAKNTVYLQMNSLIPEDTAVYYCAAGYRVRDDKVYGIVGAMDYWGQGTQVTVSS”, the “polyreactivity (PSR sort gate)” value is on record as “high polyreactivity”.
